From patent US20220289796A1
Where “and” joins values, the source holds several entries; their conditions need not be identical. Equal values may be shown once. Read-outs that look alike come from different tables or passages of the source.

Key:
[1] = target: DENV2 sE IntFc2, displayed on EXPI293F cells (Dengue virus 2 strain 16681); assay: flow cytometry, EXPI293F surface display, RT (~23 C)
[2] = target: DENV2 sE IntFc6, displayed on EXPI293F cells (Dengue virus 2 strain 16681); assay: as above
[3] = target: DENV2 sE UndPk6, displayed on EXPI293F cells (Dengue virus 2 strain 16681); assay: as above
[4] = target: DENV2 sE Cm2, displayed on EXPI293F cells (Dengue virus 2 strain 16681); assay: as above
[5] = target: DENV2 sE Mnmer2, displayed on EXPI293F cells (Dengue virus 2 strain 16681); assay: as above
[6] = target: DENV2 sE WT, displayed on EXPI293F cells (Dengue virus 2 strain 16681); assay: as above
[7] = target: DENV2 sE Mnmer1, displayed on EXPI293F cells (Dengue virus 2 strain 16681); assay: as above
[8] = target: DENV2 sE HCat3, displayed on EXPI293F cells (Dengue virus 2 strain 16681); assay: as above
[9] = target: DENV2 sE Cm1, displayed on EXPI293F cells (Dengue virus 2 strain 16681); assay: as above
[10] = target: DENV2 sE SHP1, displayed on EXPI293F cells (Dengue virus 2 strain 16681); assay: as above
[11] = target: DENV2 sE PM2, displayed on EXPI293F cells (Dengue virus 2 strain 16681); assay: as above
[12] = target: DENV2 sE SHP2, displayed on EXPI293F cells (Dengue virus 2 strain 16681); assay: as above
[13] = target: DENV2 sE IntFc8, displayed on EXPI293F cells (Dengue virus 2 strain 16681); assay: as above
[14] = target: DENV2 sE PM4, displayed on EXPI293F cells (Dengue virus 2 strain 16681); assay: as above
[15] = target: DENV2 sE IntFc2, displayed on EXPI293F cells (Dengue virus 2 strain 16681); assay: flow cytometry, EXPI293F surface display, 40 C
[16] = target: DENV2 sE IntFc6, displayed on EXPI293F cells (Dengue virus 2 strain 16681); assay: flow cytometry, EXPI293F surface display, 40 C
[17] = target: DENV2 sE UndPk6, displayed on EXPI293F cells (Dengue virus 2 strain 16681); assay: flow cytometry, EXPI293F surface display, 40 C
[18] = target: DENV2 sE Cm2, displayed on EXPI293F cells (Dengue virus 2 strain 16681); assay: flow cytometry, EXPI293F surface display, 40 C
[19] = target: DENV2 sE Mnmer2, displayed on EXPI293F cells (Dengue virus 2 strain 16681); assay: flow cytometry, EXPI293F surface display, 40 C
[20] = target: DENV2 sE WT, displayed on EXPI293F cells (Dengue virus 2 strain 16681); assay: flow cytometry, EXPI293F surface display, 40 C
[21] = target: DENV2 sE Mnmer1, displayed on EXPI293F cells (Dengue virus 2 strain 16681); assay: flow cytometry, EXPI293F surface display, 40 C
[22] = target: DENV2 sE HCat3, displayed on EXPI293F cells (Dengue virus 2 strain 16681); assay: flow cytometry, EXPI293F surface display, 40 C
[23] = target: DENV2 sE Cm1, displayed on EXPI293F cells (Dengue virus 2 strain 16681); assay: flow cytometry, EXPI293F surface display, 40 C
[24] = target: DENV2 sE SHP1, displayed on EXPI293F cells (Dengue virus 2 strain 16681); assay: flow cytometry, EXPI293F surface display, 40 C
[25] = target: DENV2 sE PM2, displayed on EXPI293F cells (Dengue virus 2 strain 16681); assay: flow cytometry, EXPI293F surface display, 40 C
[26] = target: DENV2 sE SHP2, displayed on EXPI293F cells (Dengue virus 2 strain 16681); assay: flow cytometry, EXPI293F surface display, 40 C
[27] = target: DENV2 sE IntFc8, displayed on EXPI293F cells (Dengue virus 2 strain 16681); assay: flow cytometry, EXPI293F surface display, 40 C
[28] = target: DENV2 sE PM4, displayed on EXPI293F cells (Dengue virus 2 strain 16681); assay: flow cytometry, EXPI293F surface display, 40 C
[29] = target: DENV2 sE WT (Dengue virus 2 strain 16681) (UniProt P29990); assay: nanoDSF Van't Hoff, homodimer, 37 C; design: TΔS°bind: unit not given here
[30] = target: DENV2 sE IntFc2, displayed on EXPI293F cells (Dengue virus 2 strain 16681); assay: flow cytometry, displayed sE, 40 C
[31] = target: DENV2 sE UndPk6, displayed on EXPI293F cells (Dengue virus 2 strain 16681); assay: flow cytometry, displayed sE, 40 C
[32] = target: DENV2 sE HCat3, displayed on EXPI293F cells (Dengue virus 2 strain 16681); assay: flow cytometry, displayed sE, 40 C
[33] = target: DENV2 sE SHP1, displayed on EXPI293F cells (Dengue virus 2 strain 16681); assay: flow cytometry, displayed sE, 40 C
[34] = target: DENV2 sE PM2, displayed on EXPI293F cells (Dengue virus 2 strain 16681); assay: flow cytometry, displayed sE, 40 C
[35] = target: DENV2 sE SHP2, displayed on EXPI293F cells (Dengue virus 2 strain 16681); assay: flow cytometry, displayed sE, 40 C
[36] = target: DENV2 sE IntFc8, displayed on EXPI293F cells (Dengue virus 2 strain 16681); assay: flow cytometry, displayed sE, 40 C
[37] = target: DENV2 sE PM4, displayed on EXPI293F cells (Dengue virus 2 strain 16681); assay: flow cytometry, displayed sE, 40 C
[38] = nanoDSF melting, homodimer dissociation, 4.0 µM

Substance | Fluorescence Ratio (Fr, Var/WT) [1] | Fluorescence Ratio (Fr, Var/WT) [2] | Fluorescence Ratio (Fr, Var/WT) [3] | Fluorescence Ratio (Fr, Var/WT) [4] | Fluorescence Ratio (Fr, Var/WT) [5] | Fluorescence Ratio (Fr, Var/WT) [6] | Fluorescence Ratio (Fr, Var/WT) [7] | Fluorescence Ratio (Fr, Var/WT) [8] | Fluorescence Ratio (Fr, Var/WT) [9] | Fluorescence Ratio (Fr, Var/WT) [10] | Fluorescence Ratio (Fr, Var/WT) [11] | Fluorescence Ratio (Fr, Var/WT) [12] | Fluorescence Ratio (Fr, Var/WT) [13] | Fluorescence Ratio (Fr, Var/WT) [14] | Fluorescence Ratio (Fr, Var/WT) [15] | Fluorescence Ratio (Fr, Var/WT) [16] | Fluorescence Ratio (Fr, Var/WT) [17] | Fluorescence Ratio (Fr, Var/WT) [18] | Fluorescence Ratio (Fr, Var/WT) [19] | Fluorescence Ratio (Fr, Var/WT) [20] | other results
1C19 (antibody) | 1.4 | 0.8 | 2.4 | 0.6 | 0.8 | 1 | 0.2 | 1.5 | 0.9 | 1.3 | 1.7 | 1.2 | 2 | 2.1 | 2.5 | 0 | 2.9 | 1.6 | 0.8 | 1 | Fluorescence Ratio (Fr, Var/WT) [21]: 0; Fluorescence Ratio (Fr, Var/WT) [22]: 2.5; Fluorescence Ratio (Fr, Var/WT) [23]: 3.2; Fluorescence Ratio (Fr, Var/WT) [24]: 1.8; Fluorescence Ratio (Fr, Var/WT) [25]: 2.5; Fluorescence Ratio (Fr, Var/WT) [26]: 1.9; Fluorescence Ratio (Fr, Var/WT) [27]: 3.5; Fluorescence Ratio (Fr, Var/WT) [28]: 3.1
3H5 (antibody) | 0.8 | 0.6 | 0.8 | 0.4 | 0.8 | 1 | 0.3 | 0.7 | 0.5 | 0.7 | 0.7 | 0.6 | 0.5 | 0.8 | 0.6 | 0 | 0.4 | 0.6 | 0.8 | 1 | Fluorescence Ratio (Fr, Var/WT) [21]: 0; Fluorescence Ratio (Fr, Var/WT) [22]: 0.6; Fluorescence Ratio (Fr, Var/WT) [23]: 0.6; Fluorescence Ratio (Fr, Var/WT) [24]: 0.5; Fluorescence Ratio (Fr, Var/WT) [25]: 0.5; Fluorescence Ratio (Fr, Var/WT) [26]: 0.5; Fluorescence Ratio (Fr, Var/WT) [27]: 0.4; Fluorescence Ratio (Fr, Var/WT) [28]: 0.4
DENV2 sE WT (from UniProt P29990 281-677) | – | – | – | – | – | – | – | – | – | – | – | – | – | – | – | – | – | – | – | – | Kd [29]: 13 µM; TΔS°bind [29]: -67.1; ΔG°bind [29]: -6.9 kcal/mol; ΔH°bind [29]: -74.1 kcal/mol
2D22 (antibody) | 1.3 | 1 | 2.7 | 1.9 | 2.8 | 1 | 0.5 | 1.6 | 0.8 | 3 | 2.5 | 2.4 | 2.5 | 3 | 2.5 | 0 | 4.9 | 4.4 | 0.8 | 1 | Fluorescence Ratio (Fr, Var/WT) [21]: 0; Fluorescence Ratio (Fr, Var/WT) [22]: 2.8; Fluorescence Ratio (Fr, Var/WT) [23]: 1.6; Fluorescence Ratio (Fr, Var/WT) [24]: 4.4; Fluorescence Ratio (Fr, Var/WT) [25]: 2.8; Fluorescence Ratio (Fr, Var/WT) [26]: 3.1; Fluorescence Ratio (Fr, Var/WT) [27]: 4.4; Fr (geometric mean fluorescence intensity ratio, variant/WT) [30]: > 2 fold; Fr (geometric mean fluorescence intensity ratio, variant/WT) [31]: > 2 fold; Fr (geometric mean fluorescence intensity ratio, variant/WT) [32]: > 2 fold; Fr (geometric mean fluorescence intensity ratio, variant/WT) [33]: > 2 fold; Fr (geometric mean fluorescence intensity ratio, variant/WT) [34]: > 2 fold; Fr (geometric mean fluorescence intensity ratio, variant/WT) [35]: > 2 fold; Fr (geometric mean fluorescence intensity ratio, variant/WT) [36]: > 2 fold; Fr (geometric mean fluorescence intensity ratio, variant/WT) [37]: > 2 fold
EDE1 C8 (antibody) | 1.3 | 1.3 | 2.3 | 1.7 | 2.7 | 1 | 0.7 | 1.9 | 0.9 | 2.9 | 2.4 | 2.3 | 3.3 | 3.2 | – | – | – | – | – | – | –
EDE1 C10 (antibody) | – | – | – | – | – | – | – | – | – | – | – | – | – | – | 3.4 | 0 | 4.1 | 3.8 | 0.1 | 1 | Fluorescence Ratio (Fr, Var/WT) [21]: 0; Fluorescence Ratio (Fr, Var/WT) [22]: 3; Fluorescence Ratio (Fr, Var/WT) [24]: 5.6; Fluorescence Ratio (Fr, Var/WT) [25]: 3.7; Fluorescence Ratio (Fr, Var/WT) [26]: 3.8; Fluorescence Ratio (Fr, Var/WT) [27]: 5.9; Fr (geometric mean fluorescence intensity ratio, variant/WT) [30]: > 2 fold; Fr (geometric mean fluorescence intensity ratio, variant/WT) [31]: > 2 fold; Fr (geometric mean fluorescence intensity ratio, variant/WT) [32]: > 2 fold; Fr (geometric mean fluorescence intensity ratio, variant/WT) [33]: > 2 fold; Fr (geometric mean fluorescence intensity ratio, variant/WT) [34]: > 2 fold; Fr (geometric mean fluorescence intensity ratio, variant/WT) [35]: > 2 fold; Fr (geometric mean fluorescence intensity ratio, variant/WT) [36]: > 2 fold; Fr (geometric mean fluorescence intensity ratio, variant/WT) [37]: > 2 fold
DENV3 sE WT | – | – | – | – | – | – | – | – | – | – | – | – | – | – | – | – | – | – | – | – | Tm^1 (Dimer Dissociation) [38]: < 15 ° C.; ΔTm^1 (Var-WT) [38]: 0 ° C.
DENV2 sE WT | – | – | – | – | – | – | – | – | – | – | – | – | – | – | – | – | – | – | – | – | Tm^1 (Dimer Dissociation): 35.9 ° C. and 34.2 ° C. and 32.1 ° C.
